The source of these data is US20200157212A1 (Pfizer, published 2020).

By EC50 is commonly meant the concentration at which the effect is half-maximal. Higher therefore signals a need for much substance.

Assay [1] addresses T1, Human ROBO2 overexpressed on HEK293 cells (human, UniProt Q9HCK4 22-1378).
T1 construct: also called ROBO2 cells; native ROBO2
T1 sequence: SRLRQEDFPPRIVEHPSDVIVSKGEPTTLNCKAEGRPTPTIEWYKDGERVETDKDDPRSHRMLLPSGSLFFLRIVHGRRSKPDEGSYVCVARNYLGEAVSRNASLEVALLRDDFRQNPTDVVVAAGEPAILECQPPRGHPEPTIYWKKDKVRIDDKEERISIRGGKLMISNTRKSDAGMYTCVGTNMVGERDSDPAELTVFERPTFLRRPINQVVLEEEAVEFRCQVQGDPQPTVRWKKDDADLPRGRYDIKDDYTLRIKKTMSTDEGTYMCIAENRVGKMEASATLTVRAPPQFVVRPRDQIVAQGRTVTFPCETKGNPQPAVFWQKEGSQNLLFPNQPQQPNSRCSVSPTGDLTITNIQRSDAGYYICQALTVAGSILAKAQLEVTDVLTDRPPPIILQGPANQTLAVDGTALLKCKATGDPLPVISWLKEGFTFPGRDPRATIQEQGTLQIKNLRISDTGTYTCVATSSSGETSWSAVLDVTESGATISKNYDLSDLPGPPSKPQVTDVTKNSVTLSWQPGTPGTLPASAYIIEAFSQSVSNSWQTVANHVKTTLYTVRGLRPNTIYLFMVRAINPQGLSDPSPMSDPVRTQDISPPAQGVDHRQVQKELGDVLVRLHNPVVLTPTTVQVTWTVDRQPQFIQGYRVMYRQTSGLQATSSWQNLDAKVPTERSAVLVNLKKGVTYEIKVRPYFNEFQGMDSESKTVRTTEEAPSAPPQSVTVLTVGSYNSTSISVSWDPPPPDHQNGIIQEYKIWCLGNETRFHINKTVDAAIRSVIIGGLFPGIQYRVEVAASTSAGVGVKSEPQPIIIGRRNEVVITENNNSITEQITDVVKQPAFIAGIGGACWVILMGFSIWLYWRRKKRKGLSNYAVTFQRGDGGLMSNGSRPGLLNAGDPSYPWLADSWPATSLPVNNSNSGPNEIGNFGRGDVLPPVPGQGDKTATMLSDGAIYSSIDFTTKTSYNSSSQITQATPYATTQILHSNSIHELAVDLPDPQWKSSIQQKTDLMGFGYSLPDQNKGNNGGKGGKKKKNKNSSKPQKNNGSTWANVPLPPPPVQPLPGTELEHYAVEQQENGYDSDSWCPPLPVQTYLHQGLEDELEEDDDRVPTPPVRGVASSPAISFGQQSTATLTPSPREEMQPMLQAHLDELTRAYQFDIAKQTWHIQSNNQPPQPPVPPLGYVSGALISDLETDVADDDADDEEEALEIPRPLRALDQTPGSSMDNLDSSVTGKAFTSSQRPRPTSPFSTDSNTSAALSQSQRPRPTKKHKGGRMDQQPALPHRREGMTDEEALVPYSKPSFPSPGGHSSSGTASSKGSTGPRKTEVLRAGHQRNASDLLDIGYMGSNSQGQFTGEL
Nature of the assay: flow cytometry, HEK293 cells, average of n = 5. On the procedure: Binding of the antibodies was detected using a secondary fluorochrome conjugated anti-human IgG F(ab′)₂ antibody and samples were analyzed on a Fortessa cytometer (BD Biosciences). The fold ROBO2 selectivity was calculated as the geometric mean fluorescence intensity (Geo MFI) with ROBO2 cells/Geo MFI with ROBO1 cells. A fold change higher than 3 was considered to be ROBO2 specific (Table 2, Fold Selectivity). Some affinity matured clones had increased ROBO1 reactivity, for example Abcs 55, CTI-R2-10 and CTIR2-13.
Based upon several criteria, Abcs25 and Abcs35 were selected for further characterization. Using flow cytometry, improvement in the binding EC₅₀ to human ROBO2 relative to the parental 93H2 was evaluated. Starting at 6.7 nM, 11-point, 3-fold dilution series were made for each antibody and used to stain HEK293 overexpressing human ROBO2 as described above for the ROBO2 fold selectivity (Example 2). […] In addition to measuring improved binding to human ROBO2, it was important to ensure that high affinity binding to both cynomolgus monkey ROBO2 and rat ROBO2 was maintained. Using HEK293 cells overexpressing either cynomolgus monkey ROBO2 or rat ROBO2, the relative dose-dependent binding of 93H2, Abcs25 and Abcs35 was evaluated as described above. High affinity binding to both cynomolgus monkey and rat ROBO2 was maintained in Abcs25 and Abcs35 (Table 4). […] Briefly, Abcs35 was immobilized to 300 resonance units (RU) on a CM5 chip. Association of ROBO2 Ig1-Ig2-His (ROBO2) was measured over 5 minutes and dissociation was followed for a period of 10 minutes.
In general terms: In flow cytometry, cells or beads pass a laser one at a time.

For assay [2], the target named is T2, Human ROBO1 overexpressed on HEK293 cells (human, UniProt Q9Y6N7 26-1651).
T2 construct: also called ROBO1 cells
T2 sequence (Q9Y6N7 26-1651 limits assumed): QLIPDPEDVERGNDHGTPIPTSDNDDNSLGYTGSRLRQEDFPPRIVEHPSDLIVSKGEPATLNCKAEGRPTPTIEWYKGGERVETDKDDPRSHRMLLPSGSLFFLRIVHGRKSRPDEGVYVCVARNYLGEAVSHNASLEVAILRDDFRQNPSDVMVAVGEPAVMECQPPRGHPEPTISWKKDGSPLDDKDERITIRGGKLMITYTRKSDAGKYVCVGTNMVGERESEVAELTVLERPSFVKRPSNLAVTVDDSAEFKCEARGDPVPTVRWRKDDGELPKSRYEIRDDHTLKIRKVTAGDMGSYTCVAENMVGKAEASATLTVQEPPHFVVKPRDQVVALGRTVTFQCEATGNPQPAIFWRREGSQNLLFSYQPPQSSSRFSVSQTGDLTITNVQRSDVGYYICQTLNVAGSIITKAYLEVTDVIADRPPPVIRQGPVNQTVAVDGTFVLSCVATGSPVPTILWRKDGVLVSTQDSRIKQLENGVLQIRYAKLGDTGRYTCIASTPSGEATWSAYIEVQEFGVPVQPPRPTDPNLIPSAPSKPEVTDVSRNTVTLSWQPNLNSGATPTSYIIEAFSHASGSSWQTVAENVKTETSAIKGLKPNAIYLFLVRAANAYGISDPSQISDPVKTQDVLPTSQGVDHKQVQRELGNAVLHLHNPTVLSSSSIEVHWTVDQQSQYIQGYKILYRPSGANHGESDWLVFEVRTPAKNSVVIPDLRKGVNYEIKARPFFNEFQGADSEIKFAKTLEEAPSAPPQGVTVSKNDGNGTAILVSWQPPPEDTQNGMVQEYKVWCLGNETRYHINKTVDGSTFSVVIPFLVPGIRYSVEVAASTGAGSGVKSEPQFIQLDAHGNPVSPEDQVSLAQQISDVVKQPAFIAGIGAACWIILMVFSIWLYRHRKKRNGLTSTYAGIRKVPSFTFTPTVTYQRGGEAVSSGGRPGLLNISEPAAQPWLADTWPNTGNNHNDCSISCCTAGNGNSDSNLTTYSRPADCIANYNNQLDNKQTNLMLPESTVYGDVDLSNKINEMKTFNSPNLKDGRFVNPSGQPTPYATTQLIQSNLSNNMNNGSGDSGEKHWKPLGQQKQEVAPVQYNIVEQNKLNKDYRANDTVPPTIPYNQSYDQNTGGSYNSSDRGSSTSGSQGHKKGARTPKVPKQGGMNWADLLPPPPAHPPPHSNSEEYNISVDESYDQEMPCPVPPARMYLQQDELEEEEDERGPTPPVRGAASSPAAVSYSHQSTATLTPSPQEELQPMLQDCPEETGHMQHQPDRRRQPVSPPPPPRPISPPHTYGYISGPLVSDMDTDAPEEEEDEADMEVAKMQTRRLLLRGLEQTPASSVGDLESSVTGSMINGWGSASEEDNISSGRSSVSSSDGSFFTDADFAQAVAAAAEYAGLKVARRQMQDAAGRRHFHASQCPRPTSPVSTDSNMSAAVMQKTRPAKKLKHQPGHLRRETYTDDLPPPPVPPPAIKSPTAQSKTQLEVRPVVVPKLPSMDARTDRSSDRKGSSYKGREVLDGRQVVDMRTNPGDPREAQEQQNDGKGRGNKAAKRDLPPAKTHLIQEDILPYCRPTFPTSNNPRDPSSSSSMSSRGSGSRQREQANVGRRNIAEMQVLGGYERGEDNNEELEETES
Briefly: flow cytometry on HEK293 cells overexpressing human ROBO1. On the procedure:
The binding profile of Abcs35-J compared to Abcs35 was determined for human ROBO2, orthologs from cynomolgus monkey and rat, human ROBO1 and specificity for the RSK epitope from ROBO2 but not KSR from ROBO1. Binding was assessed by flow cytometry as described in Examples 2 (homolog specificity), Example 3 (ortholog reactivity) and Example 5 (RSK vs KSR epitope specificity). […] Binding of the antibodies was detected using a secondary fluorochrome conjugated anti-human IgG F(ab′)₂ antibody and samples analyzed on a Fortessa cytometer (BD Biosciences). […] FIGS. 16A-16F depicts binding profiles of Abcs35 (black circles) or Abcs35-J (grey squares) to human ROBO2 (FIG. 16A), cynomolgus monkey ROBO2 (FIG. 16B), rat ROBO2 (FIG. 16C), human ROBO1 (FIG. 16D), ROBO1 containing the ROBO2 RSK epitope (FIG. 16E) or ROBO2 containing the ROBO1 KSR epitope (FIG. 16 F).

B1: 93H2 (antibody, human IgG1, kappa, V domains shown)
VH: EVQLVQSGAEVKKPGASVKVSCKASGYTFTGYYMHWVRQAPGQGLEWMGWINPNSGATNFPQKFQGRVTMTRDTSITTAYMDLSRLRSDDTAVYYCARESGDDAFDIWGQGTMVTVSS
VL: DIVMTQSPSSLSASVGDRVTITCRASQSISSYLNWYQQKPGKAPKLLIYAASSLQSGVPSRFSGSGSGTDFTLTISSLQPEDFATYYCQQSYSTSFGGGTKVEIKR
notes: also called parental 93H2; 93H2 mAb
Consider B1, for which, in assay [1], the EC50 is 0.133 nM.

B2: Abcs35-J (antibody, human IgG1, kappa)
heavy: EVQLVQSGAEVKKPGASVKVSCKASGYTFTGYYMHWVRQAPGQGLEWMGWINPKNGDTEFPQKFQGRVTMTRDTSITTAYMELSRLRSDDTAVYYCARESGDDAFDIWGQGTMVTVSSASTKGPSVFPLAPSSKSTSGGTAALGCLVKDYFPEPVTVSWNSGALTSGVHTFPAVLQSSGLYSLSSVVTVPSSSLGTQTYICNVNHKPSNTKVDKKVEPKSCDKTHTCPPCPAPEAAGAPSVFLFPPKPKDTLMISRTPEVTCVVVDVSHEDPEVKFNWYVDGVEVHNAKTKPREEQYNSTYRVVSVLTVLHQDWLNGKEYKCKVSNKALPAPIEKTISKAKGQPREPQVYTLPPSREEMTKNQVSLTCLVKGFYPSDIAVEWESNGQPENNYKTTPPVLDSDGSFFLYSKLTVDKSRWQQGNVFSCSVMHEALHNHYTQKSLSLSPGK
light: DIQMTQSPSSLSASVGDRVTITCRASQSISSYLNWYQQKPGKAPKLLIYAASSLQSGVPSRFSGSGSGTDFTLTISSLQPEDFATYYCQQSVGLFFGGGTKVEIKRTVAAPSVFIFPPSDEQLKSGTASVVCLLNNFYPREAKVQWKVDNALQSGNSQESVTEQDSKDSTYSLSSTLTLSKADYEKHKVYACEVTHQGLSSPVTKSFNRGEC
notes: germlined variant of Abcs35; also called ABCS-J
B2: the binding result in assay [2] was “no binding (tested: last point just below 10^1 nM)”.

B3: Abcs35 (antibody, human IgG1, kappa)
heavy: EVQLVQSGAEVKKPGASVKVSCKASGYTFTGYYMHWVRQAPGQGLEWMGWINPKNGDTEFPQKFQGRVTMTRDTSITTAYMDLSRLRSDDTAVYYCARESGDDAFDIWGQGTMVTVSSASTKGPSVFPLAPSSKSTSGGTAALGCLVKDYFPEPVTVSWNSGALTSGVHTFPAVLQSSGLYSLSSVVTVPSSSLGTQTYICNVNHKPSNTKVDKKVEPKSCDKTHTCPPCPAPEAAGAPSVFLFPPKPKDTLMISRTPEVTCVVVDVSHEDPEVKFNWYVDGVEVHNAKTKPREEQYNSTYRVVSVLTVLHQDWLNGKEYKCKVSNKALPAPIEKTISKAKGQPREPQVYTLPPSREEMTKNQVSLTCLVKGFYPSDIAVEWESNGQPENNYKTTPPVLDSDGSFFLYSKLTVDKSRWQQGNVFSCSVMHEALHNHYTQKSLSLSPGK
light: DIVMTQSPSSLSASVGDRVTITCRASQSISSYLNWYQQKPGKAPKLLIYAASSLQSGVPSRFSGSGSGTDFTLTISSLQPEDFATYYCQQSVGLFFGGGTKVEIKRTVAAPSVFIFPPSDEQLKSGTASVVCLLNNFYPREAKVQWKVDNALQSGNSQESVTEQDSKDSTYSLSSTLTLSKADYEKHKVYACEVTHQGLSSPVTKSFNRGEC
notes: fully human IgG1; VH of Ab96 with VL of Ab123
The molecule B3 came in with a half-maximal effective concentration (EC50) in assay [1] of 0.082 nM. Besides, the binding result in assay [2] is given as “no binding (tested: last point just below 10^1 nM)”.

B4: Abcs25 (antibody, human IgG1, kappa, V domains shown)
VH: EVQLVQSGAEVKKPGASVKVSCKASGYTFTGYYMHWVRQAPGQGLEWMGWINPKDGDTEFPQKFQGRVTMTRDTSITTAYMDLSRLRSDDTAVYYCARESGDDAFDIWGQGTMVTVSS
VL: DIVMTQSPSSLSASVGDRVTITCRASQSISSYLNWYQQKPGKAPKLLIYAASSLQSGVPSRFSGSGSGTDFTLTISSLQPEDFATYYCQQSVGLSFGGGTKVEIKR
notes: chain-shuffled IgG
The molecule B4 displayed a concentration for a half-maximal effect (EC50) in assay [1] of 0.068 nM.
